# Results reported in the supplement of paper PMC7877785.
# ± gives the uncertainty stated by the source.
# Experiment: self-splicing fitness, log relative to wild type (ln ratio); higher = more splicing; Tetrahymena group I intron in knt gene, E. coli kanamycin selection, DiMSum; sequences stand for … in CUCUCU…GGAGGGAAAAGUUAUCAGGCAUGCACCUGGUAGCUAGUCUUUAAACCAAUAGAUUGCAUCGGUUUAAAAGGCAAGACCGUCAAAUUGCGGGAAAGGGGUCAACAGCCGUUCAGUACCAAGUCUCAGGGGAAACUUUGAGAUGGCCUUGCAAAGGGUAUGGUAAUAAGCUGACGGACAUGGUCCUAACCACGCAGCCAAGUCCUAAGUCAACAGAUCUUCUGUUGAUAUGGAUGCAGUUCACAGACUAAAUGUCGGUCGGGGAAGAUGUAUUCUUCUCAUAAGAUAUAGUCGGACCUCUCCUUAAUGGGAGCUAGCGGAUGAAGUGAUGCAACACUGGAGCCGCUGGGAACUAAUUUGUAUGCGAAAGUAUAUUGAUUAGUUUUGGAGUACUCGUGGUCG
# In short: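 Colonies from six replicate transformations of E. coli BL21(DE3) were pooled and amplicon-sequenced on an Illumina HiSeq 2500. The library placed an intron with all eight P1ex-region nucleotides randomised inside the knt kanamycin-resistance gene on pET-22b(+), and cells grew overnight at 37°C or 30°C on LB agar with or without 25 μg/mL kanamycin (plus 100 μg/mL carbenicillin, 50 μM IPTG, 0.2% rhamnose). Fitness is the DiMSum error-weighted combination of wild-type-normalised replicate fold changes, kanamycin versus none.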
Sequence,self-splicing fitness (ln) (30 °C),self-splicing fitness (ln) (37 °C)
UACUAGCAAUAUUACGGCGG,-0.694 ± 0.11,0.0905 ± 0.13
AGUUAGCAAUAUUACGGUAU,-2.69 ± 0.13,-1.34 ± 0.13
AUCUAGCAAUAUUACGAUCG,-3.35 ± 0.24,-1.77 ± 0.27
UUUCAGCAAUAUUACGCCUA,-0.129 ± 0.066,0.414 ± 0.078
ACAAAGCAAUAUUACGGACC,-1.02 ± 0.1,-1.5 ± 0.15
AAGGAGCAAUAUUACGUCCU,-2.6 ± 0.25,-2.27 ± 0.31
ACUAAGCAAUAUUACGCAUA,-1.9 ± 0.14,-2.14 ± 0.14
GUAUAGCAAUAUUACGUAUC,-2.07 ± 0.18,-0.978 ± 0.2
CCCGAGCAAUAUUACGGCCA,-2.88 ± 0.23,-3.57 ± 0.28
AAUGAGCAAUAUUACGACGU,-1.13 ± 0.11,-0.443 ± 0.12
CCGCAGCAAUAUUACGACUC,-3.06 ± 0.23,-2.02 ± 0.26
UUUUAGCAAUAUUACGCCGG,-1.28 ± 0.18,-0.833 ± 0.21
UUGCAGCAAUAUUACGGCCU,-1.03 ± 0.095,-0.864 ± 0.18
UAGUAGCAAUAUUACGUGGA,-2.56 ± 0.31,-1.29 ± 0.2
GCGGAGCAAUAUUACGUUCG,,-0.666 ± 0.37
UGUAAGCAAUAUUACGUACU,-0.07 ± 0.081,-0.136 ± 0.092
GUACAGCAAUAUUACGGGCC,-3.94 ± 0.3,-1.14 ± 0.15
CCUGAGCAAUAUUACGCCUC,-2.22 ± 0.29,-1.88 ± 0.3
UGCAAGCAAUAUUACGGUGA,-0.55 ± 0.068,0.00833 ± 0.086
CAACAGCAAUAUUACGGAGA,-3.07 ± 0.2,-1.82 ± 0.2
UCCUAGCAAUAUUACGUAAC,-3.53 ± 0.24,-2.07 ± 0.27
CUCUAGCAAUAUUACGUAGA,-3.49 ± 0.27,-1.6 ± 0.17
GAGGAGCAAUAUUACGUACC,-0.85 ± 0.31,-0.663 ± 0.27
GGAGAGCAAUAUUACGGGAU,-4.2 ± 0.36,-3.23 ± 0.35
CGGUAGCAAUAUUACGGUCC,-2.24 ± 0.15,-0.321 ± 0.17

Sequence,self-splicing fitness (ln) (30 °C),self-splicing fitness (ln) (37 °C)
GUGUAGCAAUAUUACGGCAA,-0.687 ± 0.17,-0.481 ± 0.23
GGUGAGCAAUAUUACGGCAC,-1.85 ± 0.17,-0.155 ± 0.18
CACCAGCAAUAUUACGGAUA,-1.42 ± 0.065,-1.18 ± 0.069
GAUCAGCAAUAUUACGCCAA,-1.95 ± 0.15,-0.747 ± 0.12
GUUAAGCAAUAUUACGGGGC,-3.5 ± 0.24,-2.58 ± 0.25
GAGCAGCAAUAUUACGUAAC,-1.36 ± 0.11,-1.13 ± 0.18
UUGUAGCAAUAUUACGCGUA,-1.31 ± 0.18,-0.742 ± 0.22
CUAUAGCAAUAUUACGGCAG,-1.51 ± 0.13,-0.425 ± 0.13
UUUGAGCAAUAUUACGCCUA,-0.79 ± 0.45,
AGUGAGCAAUAUUACGUCUA,-2.45 ± 0.27,-1.41 ± 0.2
UCGAAGCAAUAUUACGCGGC,-3.35 ± 0.32,-2.87 ± 0.36
UCAGAGCAAUAUUACGAACG,-3.12 ± 0.32,-1.85 ± 0.3
CCAAAGCAAUAUUACGCUAA,-2.86 ± 0.23,-2.7 ± 0.3
GAGUAGCAAUAUUACGCAUC,-2.66 ± 0.32,-2.17 ± 0.28
ACAAAGCAAUAUUACGUUUC,-4.84 ± 0.24,-2.49 ± 0.16
GGACAGCAAUAUUACGUAGA,-0.242 ± 0.08,-0.126 ± 0.091
AACAAGCAAUAUUACGAUAG,-3.24 ± 0.17,-2.24 ± 0.18
AAUGAGCAAUAUUACGUCAC,-2.93 ± 0.41,-1.92 ± 0.29
AUCUAGCAAUAUUACGCACA,-0.774 ± 0.11,0.129 ± 0.12
ACGAAGCAAUAUUACGAAUA,-2.01 ± 0.26,0.937 ± 0.18
ACGCAGCAAUAUUACGCCAC,,-3.22 ± 0.37
CUCUAGCAAUAUUACGAUUA,-3.01 ± 0.29,-2.85 ± 0.25
GGCCAGCAAUAUUACGGUAU,-0.512 ± 0.06,0.47 ± 0.084
GGCUAGCAAUAUUACGUCAU,-1.5 ± 0.082,-0.278 ± 0.086
CAUUAGCAAUAUUACGUAGC,-3.25 ± 0.19,-2.4 ± 0.17

Sequence,self-splicing fitness (ln) (30 °C),self-splicing fitness (ln) (37 °C)
GACUAGCAAUAUUACGGGUU,-3.92 ± 0.24,-2.74 ± 0.27
CCGGAGCAAUAUUACGUACU,-4.13 ± 0.44,-3.36 ± 0.42
GUUAAGCAAUAUUACGACAC,-0.925 ± 0.13,0.479 ± 0.19
GCGGAGCAAUAUUACGACAG,-3.33 ± 0.5,-1.09 ± 0.45
CUCCAGCAAUAUUACGGUAA,-1.4 ± 0.13,-1.8 ± 0.15
GGCCAGCAAUAUUACGUUAU,-2.4 ± 0.13,-0.702 ± 0.11
AGAAAGCAAUAUUACGUAGA,-1.52 ± 0.12,-1.52 ± 0.14
GACGAGCAAUAUUACGGUGA,-3.52 ± 0.23,-2.05 ± 0.26
GGUAAGCAAUAUUACGCGUA,-0.32 ± 0.21,-0.425 ± 0.15
AGGAAGCAAUAUUACGUGUA,-2.06 ± 0.1,-0.914 ± 0.085
CACAAGCAAUAUUACGCCCU,-3.12 ± 0.19,-0.633 ± 0.13
CAUCAGCAAUAUUACGCGGG,-2.04 ± 0.13,-0.735 ± 0.12
UGCAAGCAAUAUUACGACGU,-1.76 ± 0.1,-1.1 ± 0.13
GGUCAGCAAUAUUACGCAGA,,-2.72 ± 0.33
UGUUAGCAAUAUUACGGAAU,-0.534 ± 0.34,-1.91 ± 0.38
UGAUAGCAAUAUUACGUGAC,-3.54 ± 0.29,-1.82 ± 0.29
GUUGAGCAAUAUUACGUCUU,-1.53 ± 0.17,-1.72 ± 0.2
GAUAAGCAAUAUUACGCCGC,,-1.99 ± 0.41
CCGCAGCAAUAUUACGCACC,-3.46 ± 0.23,-2.05 ± 0.24
GGCAAGCAAUAUUACGGGGA,-3.51 ± 0.26,-1.31 ± 0.3
UUCUAGCAAUAUUACGGUUU,-2.05 ± 0.11,-1.52 ± 0.12
AAAGAGCAAUAUUACGCUCC,-2.57 ± 0.3,-2 ± 0.41
UGAUAGCAAUAUUACGGCCG,0.151 ± 0.1,0.324 ± 0.15
GUUUAGCAAUAUUACGGCAG,-2.12 ± 0.26,-1.66 ± 0.38
GUAAAGCAAUAUUACGUAAC,-1.7 ± 0.17,-1.38 ± 0.28

Sequence,self-splicing fitness (ln) (30 °C),self-splicing fitness (ln) (37 °C)
CAUUAGCAAUAUUACGUCUC,-3.28 ± 0.27,-1.76 ± 0.23
AGACAGCAAUAUUACGCGGU,-3.61 ± 0.21,-2.4 ± 0.22
AUUGAGCAAUAUUACGACAA,-2.28 ± 0.29,-1.31 ± 0.23
AAGCAGCAAUAUUACGGCAU,-0.221 ± 0.083,0.127 ± 0.1
UGAGAGCAAUAUUACGUGCG,-1.95 ± 0.13,-1.42 ± 0.15
CUACAGCAAUAUUACGCGGU,-3.49 ± 0.3,-2.17 ± 0.28
CAGCAGCAAUAUUACGUUGC,-2.61 ± 0.27,-2.11 ± 0.2
GUCAAGCAAUAUUACGCAUC,-3.22 ± 0.13,-1.74 ± 0.18
UCUGAGCAAUAUUACGUCGU,-3.79 ± 0.29,-1.91 ± 0.25
UCGUAGCAAUAUUACGCAAG,-3.91 ± 0.35,-2.12 ± 0.27
ACAUAGCAAUAUUACGAUGU,-3.82 ± 0.16,-2.19 ± 0.16
ACUUAGCAAUAUUACGGGAC,-3.61 ± 0.19,-2.03 ± 0.17
UCCGAGCAAUAUUACGUGAG,-2.83 ± 0.19,-2.43 ± 0.23
UGUAAGCAAUAUUACGUGCA,-0.738 ± 0.12,-0.62 ± 0.11
CCGGAGCAAUAUUACGACUU,-2.23 ± 0.24,-1.86 ± 0.48
AUCAAGCAAUAUUACGAUGG,-3.43 ± 0.26,-2.67 ± 0.2
UACGAGCAAUAUUACGUCGU,-4.08 ± 0.33,
CCCAAGCAAUAUUACGCCUU,-3.04 ± 0.16,-2.88 ± 0.21
CGCAAGCAAUAUUACGCGGG,-4.14 ± 0.42,-2.31 ± 0.23
UUUGAGCAAUAUUACGACUA,-1.98 ± 0.27,-1.32 ± 0.28
CCGGAGCAAUAUUACGAAAA,,-2.99 ± 0.48
UCAUAGCAAUAUUACGACGA,-0.24 ± 0.096,-0.532 ± 0.11
